Two molecules from patent US7521540B2, “CYR61 compositions and methods” (Munin Corporation, priority 1996, dated 2009) can be followed below.

The subject of assay [1] is mink lung epithelial (Mv1Lu) cells. The experiment in a line: Fisp12 cell attachment assay, Mv1Lu cells. The format is cell-based. Conditions: coating 20 μg/ml. As for the experimental part: (§1) The capacity of Fisp12 to affect cell adhesion was also investigated. Fisp12 cell attachment assays were performed essentially as described (Oliver et al., [1989]). 96-well immunological plates were coated for 16 hours at 4° C. with 20 μg/ml Cyr61, Fisp12 or fibronectim (Gibco BRL) in PBS containing 0.1 mg/ml BSA and blocked with 10 mg/ml BSA for 1 hour at room temperature. HUVE cells were plated at 10^4 cells/well in F12K media with 10% FBS (Hyclone Laboratories, Inc., Logan, Utah); NIH 3T3 fibroblasts were plated at 3×10^4 cells/well and Mv1Lu cells were plated at 5×10^4 cells/well in minimal essential medium (MEM) with 10% FBS. After 1 hour incubation cells were fixed, stained with methylene blue and quantified as described (Oliver et al., [1989]). Cell spreading was examined on cells plated on 100 mm polystyrene petri dishes coated with 2.5 ml of a 20 μg/ml solution of Cyr61, Fisp12 or fibronectin. 10^7 cells were plated on each dish and cell spreading was analyzed 90 minutes after plating by microscopy at 100× magnification.

The next assay relates to HUVE cells. The experiment in a line: Fisp12 cell attachment assay, HUVE cells. The format is cell-based, human. Particulars: coating 20 μg/ml, HUVE cells. As for the experimental part: as §1
Another assay relates to platelets. The experiment in a line: Platelet adhesion assay. Conditions: for adhesion of unactivated platelets: PGl2 100 nM, coating 25 μg/ml; for adhesion of activated platelets: thrombin, U46619 or ADP. The format is cell-based, human. As to the method: Microtiter wells were coated with purified recombinant Fisp12/mCTGF or Cyr61, and the adhesion of isolated platelets to these proteins was detected with ^125I-mAb15, an anti-β3 monoclonal antibody (Frelinger et al., J. Biol. Chem 265:6346-6352 [1990]). Platelets were obtained from venous blood drawn from healthy donors and collected into acid-citrate-dextrose (ACD). Washed platelets were prepared by diffenential centrifugation as described (Kinlough-Rathbone et al. Thromb. Haemostas 2:291-308 [1997]), and finally resuspended in HEPES-Tyrode's buffer (5 mM HEPES, pH 7.35, 1 mM MgCl2, 1 mM CaCl2, 135 mM NaCl, 2.7 mM KCl, 11.9 mM NaHCO3, 1 mg/ml dextrose and 3.5 mg/ml BSA). The platelet concentration was adjusted to […].
Microtiter wells (Immulon 2 removawell strips, Dynex Technologies, Inc.) were coated with Cyr61, Fisp12/mCTGF, or fibrinogen (25 μg/ml, 50 μl/well) incubated overnight at 22° C., and then blocked with 3% BSA at 37° C. for 2 hours. Washed platelets were added to the wells (100 μl/well) in the presence and absence of platelet agonists and incubated at 37° C. for 30 minutes. The wells were washed with HEPES-Tyrode's buffer and adherent platelets were detected with ^125I-mAb15, an anti-β3 monoclonal antibody. Exposure to the labeled antibody ([…], 50 μl/well) proceeded for 1 hour at 22° C. After extensive washing with HEPES-Tyrode's buffer, bound radioactivity was determined by γ-counting. In inhibition studies, washed platelets were pre-incubated with blocking peptides or antibodies at 37° C. for 15 minutes prior to addition to microtiter wells.
The anti-β3 antibody was radioiodinated with carrier-free Na^125I (Amersham Corp.) using the IODO-BEADS iodination reagent (Pierce) to a specific activity of approximately 2 μCi/μg. […] As controls, BSA- and fibrinogen-coated (KabiVitrum Inc.) wells were also used. Initially, the adhesion of unactivated versus activated platelets to immobilized Fisp12/mCTGF and Cyr61 was compared. To ensure that plateltes were not activated during the washing procedures, PGl2 (100 nM), which inhibits activation by raising platelet cAMP levels, was added to the platelet suspensions. […]

For another assay, the system named is NIH 3T3 fibroblasts. The assay can be described thus: Fisp12/Cyr61 cell attachment and spreading, NIH 3T3. The format is cell-based, mouse. Particulars: for cell attachment to coated dishes: coating 20 μg/ml, NIH 3T3 fibroblasts. As for the experimental part: Another embodiment of the invention is directed to the use of Cyr61 to mediate cellular attachment to the extracellular matrix. Induction of cellular adhesion was investigated using murine Cyr61, fibronectin, and bovine serum albumin (BSA). Immunological 96-well plates (Falcon brand) were coated with 50 μl of 0.1% BSA in PBS at 4° C. in the presence of 0-30 μg/ml concentrations of murine Cyr61 or fibronectin. After two hours exposure to the coating solution, non-diluted immune or pre-immune antisera (30 μl/well), or affinity-purified anti-Cyr61 antibodies were added. For some wells, the coating mixture was adjusted to 10 mM DTT or 100 mM HCl. After 16 hours incubation, the coating solution was removed and the well surface was blocked with 1% BSA in phosphate-buffered saline (PBS) for 1 hour at room temperature. HUVE cells were plated in Ham's complete F12K medium [GIBCO-BRL, Inc.; Ham, Proc. Natl. Acacd. Sci. (USA) 53:786 (1965)] at 5×10^3-10^4 cells/well. Cycloheximide was added to 100 μg/ml immediately before plating and monensin was added to 1 μM 14 hours before plating. After a 2-hour incubation at 37° C., the wells were washed with PBS and attached cells were fixed and stained with methylene blue. The attachment efficiency was determined by quantitative dye extraction and measurement of the extract absorbance at 650 nm. Oliver et al., J. Cell. Sci. 92:513-518 (1989).
as §1

B1: Cyr61: Cysteine-rich ECM signaling protein; murine sequence SEQ ID NO:2, recombinant from Baculovirus-infected Sf9 cells (protein, listed as Mus musculus)
chain: MSSSTFRTLAVAVTLLHLTRLALSTCPAACHCPLEAPKCAPGVGLVRDGCGCCKVCAKQLNEDCSKTQPCDHTKGLECNFGASSTALKGICRAQSEGRPCEYNSRIYQNGESFQPNCKHQCTCIDGAVGCIPLCPQELSLPNLGCPNPRLVKVSGQCCEEWVCDEDSIKDSLDDQDDLLGLDASEVELTRNNELIAIGKGSSLKRLPVFGTEPRVLFNPLHAHGQKCIVQTTSWSQCSKSCGTGISTRVTNDNPECRLVKETRICEVRPCGQPVYSSLKKGKKCSKTKKSPEPVRFTYAGCSSVKKYRPKYCGSCVDGRCCTPLQTRTVKMRFRCEDGEMFSKNVMMIQSCKCNYNCPHPNEASFRLYSLFNDIHKFRD
In the case of B1, the “cell attachment to coated dishes” value (in assay [1]; in the assay on HUVE cells; in the assay on NIH 3T3 fibroblasts) was “promoted the attachment” each time. Also, in the assay with platelets, the “adhesion of unactivated platelets” value is reported as “failed to adhere”. Further, the “adhesion of activated platelets” value in the assay on platelets is reported as “dramatic increase in platelte adhesion”. Further, the “attachment of NIH 3T3 cells to murine Cyr61-coated surfaces” value in the assay on NIH 3T3 fibroblasts (method of b177) is “promoted the attachment of NIH 3T3 cells, though less effectively than fibronectin”.

B2: Fisp12: Cysteine-rich murine protein, SEQ ID NO:6, mouse ortholog of CTGF (protein, listed as Mus musculus)
chain: MLASVAGPISLALVLLALCTRPATGQDCSAQCQCAAEAAPHCPAGVSLVLDGCGCCRVCAKQLGELCTERDPCDPHKGLFCDFGSPANRKIGVCTAKDGAPCVFGGSVYRSGESFQSSCKYQCTCLDGAVGCVPLCSMDVRLPSPDCPFPRRVKLPGKCCKEWVCDEPKDRTAVGPALAAYRLEDTFGPDPTMMRANCLVQTTEWSACSKTCGMGISTRVTNDNTFCRLEKQSRLCMVRPCEADLEENIKKGKKCIRTPKIAKPVKFELSGCTSVKTYRAKFCGVCTDGRCCTPHRTTTLPVEFKCPDGEIMKKNMMFIKTCACHYNCPGDNDIFESLYYRKMYGDMA
As to B2, the “cell attachment to coated dishes” value (in assay [1]; with HUVE cells; in the assay on NIH 3T3 fibroblasts) was “promoted the attachment” each time. The “adhesion of unactivated platelets” value in the assay on platelets is “failed to adhere”. In addition, the “adhesion of activated platelets” value with platelets is “dramatic increase in platelte adhesion”. In the assay on NIH 3T3 fibroblasts (dishes coated with 20 μg/ml, 90 minutes), the “cell spreading” value is given as “promotes cell spreading”.
